Assay results reported in patent US20210206838A1.
Where a chain is given by its changes, count along the chain named.

B1: MS-40 (antibody, V domains shown)
VH: QMQLQESGPGLVKPSETLSLTCSVSGASISDSYWSWIRRSPGKGLEWIGYVHKSGDTNYSPSLKSRVNLSLDTSKNQVSLSLVAATAADSGVYYCARTLHGRRIYGIVAFNEWFTYFYMDVWGNGTQVTVSS
VL: SDISVAPGQTARISCGEKSLGSRAVQWYQQRAGQAPSLIIYNNQDRPSGIPERFSGSPDSPFGTTATLTITSVEAGDEADYYCHIWDSRVPTKWVFGGGTTLTVLG
B2: MS-48 (antibody, V domains shown)
VH: B1 VH with V92K
VL: B1 VL with Q9E

Tests used:
Test in all cases: cell-based or functional assay
[1] = target: HIV pseudovirus 0260.v5.c36 (envelope glycoprotein) (HIV)
[2] = target: HIV pseudovirus CNE52 (envelope glycoprotein) (HIV)
[3] = target: HIV pseudovirus Ce1176_A3 (envelope glycoprotein) (HIV)
[4] = target: HIV pseudovirus Du172.17 (envelope glycoprotein) (HIV)
[5] = target: HIV pseudovirus RHPA4259.7 (envelope glycoprotein) (HIV)
[6] = target: HIV pseudovirus SC05.8C11.2344 (envelope glycoprotein) (HIV)

Row | Binder | neutralization IC50 [1] [µg/mL] | neutralization IC80 [1] [µg/mL] | neutralization IC50 [2] [µg/mL] | neutralization IC80 [2] [µg/mL] | neutralization IC50 [3] [µg/mL] | neutralization IC80 [3] [µg/mL] | neutralization IC50 [4] [µg/mL] | neutralization IC80 [4] [µg/mL] | neutralization IC50 [5] [µg/mL] | neutralization IC80 [5] [µg/mL] | neutralization IC50 [6] [µg/mL] | neutralization IC80 [6] [µg/mL]
1 | B1 | 0.043 | 0.149 | 2.22 | 22.2 | 0.009 | 0.033 | 0.046 | 0.36 | 0.006 | 0.025 | 0.014 | 0.05
2 | B2 | 0.021 | 0.108 | 2.81 | 21.9 | 0.009 | 0.036 | 0.02 | 0.165 | 0.013 | 0.034 | 0.016 | 0.063
